In the supplement of paper PMC12636428:

Tested on: Saccharomyces cerevisiae
Test: transcriptional activation domain activity (GFP:mCherry ratio, weighted mean of sorted bins, harmonized to initial dataset scale) (arbitrary fluorescence ratio units); higher = stronger transcriptional activation
Conditions: beta-estradiol 1 µM; induction time 4 h
Procedure: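 53-aa protein tiles (fungal proteins plus yeast TF control tiles) fused C-terminally to a DBD-estrogen-binding domain-mCherry synthetic TF, integrated in S. cerevisiae (URA3 locus) with a GFP reporter. Cells were induced with 1 uM beta-estradiol for 4 h at 30 C, FACS-sorted into 8 bins by GFP:mCherry ratio and barcodes sequenced. Activity is the read-weighted mean bin fluorescence (GFP:mCherry), averaged over barcodes (median 12); tiles under 50 reads were discarded. New active-learning values were harmonized by linear fit onto the scale of the initial (Hummel et al.) dataset. The assay saturates at low and high signal.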

Row | Sequence | transcriptional activation domain activity
1 | RAYGCEAAFITVLQEKINHYTRCARVFYNLNRWVAVRLELLSSLFTTALAAYL | 63400
2 | KSPVKRKPKAEGASADGSPKKRKSKGEAADADGTPKKRGRKPKKAEPQPEIQG | 33700
3 | RRRWINSTVHNLCELIILPELFGFCCFSMRFFVFLDLLGTLILPATVVYLVYL | 51600
4 | EVGADGGAAADEEEEEESDEEGEDGGRKRKKPKVAAEKPERKASAAPADGEKK | < 6570
5 | CLTQGLGICRDAENPEVNPDTATGEEGDVRTRCFQRDSLKDQVIVLAFLIITT | 28900
6 | FMSDVGILRWSKLGMPIQSLYQAIWLTFWCSFPFIRDWSWTAQVFFTLHLLSI | 43100
7 | MWGWNGKEIHFSFTEVFLKFLIWLVHSFLRSFLGFSNGFFLTFPLVGFFFSFL | 54800
8 | MVCTLDHFQFVGLIYFAFFFIVISYFIDSVIFILFFVYFPFFVFLLLFVIAFY | 54800
9 | AEEEQKKPKGKKAAAASKPKKSSDDEPAPGKSKPAARTGSIKGKSTGTKAGAQ | 22300
10 | TCRHSSPHVWWLIFGVLCIMYMMVLEVLLLGFVVLVLAPLVFIFWNLFLICIG | 52700
11 | DEPFKCTQSRCSIILPRDLMAVHFSYRRRTLKLIRSCPITKCSFRIRLFRPQS | 69700
12 | LALLTPGPSHVDPEYGTFQSLLFFFGLCTFLTTLTGIASSYIFWLYCSVLLLA | 52100
13 | DQGLTDCGDVRHTKVVSLSYHFSPDYNDPTIIPVVTRWCTEIGKLTLTGITFV | 62400
14 | MPNKLVYEICFVHLTINCLCRGCLMYCALYIILIIKYHNHLLYFIFFNFMAIP | 38200
15 | MLMDLALTLDDLTVRSLSVVGASVFMAFTYATLPATLGWGTWFLLSVWTLIFY | 64200
16 | NIFMLVFWSLALIYWSMFVIIPSIFNYFSPYHYSRWKVVLVNVGTFVWNLATC | 61300
17 | ILFIGGLFLIIAPQMTFHVPAYRIRLCEAACFLCRNFLVFLKRKSVAVIVEMF | 59000
18 | QSFQTLLLILFLPPPLISPFLYVTFFFFPFFPFFFALPRFWDRWALSAFFFLL | 49200
19 | EPHNDIILDLLFTLAYWHALAKLRLHTDFTLSKLEEVTMFLGRQLRYLRRVTC | 51800
20 | EAYPEPEEEPTMEPIDLSDDALLQVSYRLQKQNLSSSIVLLLTNRCLFISKPY | 49400
21 | VLVVLCLRFFIFGIFGYILGFWMQHLLPYTPLSLSFMCLLFCLSFHLDISPSP | 45600
22 | MESVTCFYFHLFRFFHSRLLVFVLMLCFESIVSLFRFLCIFVFSLFFYIFFFF | 75500
23 | VLSDKEKHRVASQHLNGESSPQLVPHSHHQPHSDTDEEDWESIGAASLRNNSL | 35500
24 | AEKEAEPEKEAGSESPQKKITPMKRGRGRPKRGGGAAGASSPEPAAVVVVAER | 14700

Row | Sequence | transcriptional activation domain activity
25 | MYICVRKVYVHFDMNLRVYWIVAIMVKCICGLVELCLITSPPYIMLVLSKLFL | 32100
26 | VETRSFWFLPVIQKHALHLTMVDILSSTPGIWCLSEFMIGHLLLCVHLRSISV | 60500
27 | MADACGSNPGGKSVKDVRAEQESKRARGALSCAECRRLKLRCDKRVPCSSCQR | 25400
28 | QSQAPARKKGAGGKEGKKGKGGKEGKEKVEKESKKKRKAEAEVVVGDEAAAAA | 33800
29 | SKEREQRERSVEQEQPRRKNGRRRRDKRDEQRRRNRRRSSSSRRESRSSRRES | 44600
30 | FLFFFFLLLFLLYSSLPLPPFLYPSLPLCRFSLFYYYLLLWFHFPCFSPFFLF | 57900
31 | DYTNWLGRNIVAWASKEPSTDDVKLCSGLLVKGLRLGHSDALVKLLVSMLFLT | 49000
32 | GTGDEQTGSGEKGKKKKASRACYHCQKAHLTCDDARPCGRCVKRNLASTCTDG | 40600
33 | APTTSKKRGRKADTNSDDAGSPSEPRRLRRSHEACARCRSKKIKASPVGRHRP | 30900
34 | LPQMGVPGEPLTLLVEFADMLIEMWHQCLAQRYYGPIYHLVALIVYTLELNAT | 54200
35 | MIYGWSIFFFFFFFALHVYIRVFLWGRFCLRVVWVRLFLFHFSGWGCNFGGFV | 49700
36 | CDSGNEFDGRIGLRVSSIFVILIGSLIGAMLPVVLARSSKMRVPKLAFFVAKY | 36900
37 | TRSKKSAPRTSESSEDEEQRPSSRPSSRASRPASRASASRKRSDSTGTAGGGE | < 6570
38 | MTLASLAARRSNCMKRRVGCVVVSQPDRRVISTGYNGTPRGIRNCGEGGCPRC | 39100
39 | NTLSRTKAYMTFILAFVAITSIVRFTGSTLYLIARFLLGKRAWITYLIYVYLY | 52700
40 | AEEGEEGRRKKGASKARSESGRSRIGGKRKEGEGEREGDEGRKKKRKKNKEKE | 32800
41 | SVKTKAAGKGKPKTTNDKATKSSEPRKAAKVSDDETKPTSNGAASAKAGGERQ | 23600
42 | ASENSESSDSSDDEADVPSRKGNAASAVNTMADDDDDEEGGGGATTAAAARTK | 16900
43 | MAHLAYHPLYPLWDLLSHTLIMLIFLITLICLLCPFPSLFIFTPICLSVYLLI | 27200
44 | ICNFFYKNILGMGVLFWYQIYCGWSSTYVYNYVYLLFWNVFWTLCPVIAIGLF | 41800
45 | LNLGWRLMHFKVHFARIGVIVHGPQYGELTDWDCSSAHRGDILGFPKAQLLFE | 25100
46 | EKKGKEGKRMRREKREIKEPEEKWEEKKKKPEEPEDVGARPRKPRREESKSRA | 37600
47 | GDVAATDIGSKGGKKDGKRQKGSAAHVDGEDTSEDKKGAAKTGKRKKGGGAKE | 27200
48 | MFIYVFRPCNCIHLFIICQFSLFLITLLLYLFDLFFQLPFLLCINLTFCVAMC | 64900

Row | Sequence | transcriptional activation domain activity
49 | WLAHSKKKTCDVCKHPYSFTKVYATDMPTRLPPVLLLRRVAQQSFFAMIFAVR | 35900
50 | EVGAKTFLAGLAGSGGSGGVYRCVIDKSRPAVWRLRKNDAPLSSFAAALLVSN | 72500
51 | LNWYFLGTFMYFLYGESIIYYFKHVLLVDRILLPLATHHRFISFMLYIIGFVF | 74300
52 | QGAAKAVFEPHFSQKDDEGNIIKKKFAVACRVRNCTKLDRMTVISALAAAVGQ | 46500
53 | IFRVTLLLVYFWTSSIIIGVTQYIGTPLYLISKDHYYRFMAFTKQCMTLLVLS | 65400
54 | YCAINCGGIDGLSLFMKIQWIANLDYLDIELLFGGIYYYFVCLLLVLLLLLWL | 42700
55 | KHRSSINTVLVVGGDDKVVKQAGDALKGKLGVKGGGKGPRWSGKFIGVWKAAR | 50100
56 | VNLHRARLRSCLDIIHLHIALGSTKRGLERVFELRRMLVSLLALHPFFRPTST | 46100
57 | MGFFILFYFLFSLWVCGFGFFSRLSVLYLGGFVLFLINHLSLFLYIIFFFFMF | 38800
58 | ILCASLHLLGHLPFRFCDVVLLFICHMFQELGRFDLIPGPVAHLTLRHSIVAA | 63500
59 | IPHGKVGDIFLLFEFSYPIISTIIILFYYYYFYYLLSLHILYFFYYSRCWLLV | 42300
60 | ATPAPAPGMSAAPAPAAEPVESTPKAESKPEPKPEPKAEPKAESKPAAKPAAA | 19500
61 | RKKRERRERLKRGKKGGKKGDEDGAGDGEKGKGGKVKARVVIREDAEGLGGEG | 30900
62 | LFLLLMFQGLDIFTPGIRVLHFRICLLLLLLIILLAVPLLFSYIHLTAFTIFY | 59100
63 | SPSRNAERPSPAAPAAMERGPDGRPRLKLAPRSAPRTETPSPAPVAPPAPVHV | 29400
64 | DTMIRLFVGWLEEDPSSDRVLPRVHLGEIGIPVKLDLSSPSAVLVVSRLLCSL | 74100
65 | LAHFVIHRGLIISIMQAVFSAIFYFAPIALYQGMLLVGYTTVYTMWPLFSLVL | 58500
66 | MTVEPSISLLFIDYLLFLIPFLSLFILFSLVLLLSYISPCNFFFFAISSQLPW | 39200
67 | WATVYLWTCHYQLLVYICTLIIIETRGFLKLGYVFLITLLLLSCIPHILLHVI | 30300
68 | MIPGVLLECSFVEFLSFLLDLLLLTLLWIMRLMMMLLLPLFLLLLLIFVYCCV | 39500
69 | HLGHEAQASIEEEEEEEEEEEEEEEEEERRGEGGSVRKATHKIAAATVASVGT | 33300
70 | ALSTRPFVLSDMIFFFGVGTLITLPIPFLVIYDYPYKKPRTYQVYLLICVWAW | 61500
71 | RKDKSKDTKERDVSKRQRGSSRNKGTKAKGTQTKQNEDEEDIVKTRKSKAKDK | 15200
